The record followed here is patent US20230220016A1.

The test has as its target 434cI-SH2 (SH2 domain of ABL1 kinase fused to 434 cI repressor) (434 phage) (UniProt P16117). The experiment in a line: cell-based or functional assay.

Regarding “RpoZ-HA4 (monobody HA4 fused to RpoZ) (from UniProt P0A800 1-91) (designed binder)”, the transcriptional activation, bacterial 2-hybrid, sensitized promoter PlacZ-opt stood at 200 fold and the transcriptional activation, bacterial 2-hybrid, wild type PlacZ promoter worked out at 17 fold.
